Laboratory results reported in the supplement of paper PMC10126150.
± gives the standard deviation of the averaged measurements.

The sequences below were run on ATP (assay: switch fluorescence ratio, 500 uM ATP over buffer (Cy3 cluster intensity, sum of 5 cycles each) (fold (ratio)); higher = stronger signal-on switching upon ATP binding; sequences stand for … in TCGTCGGCAGCGTCAGATGTGTATAAGAGACAGTTTTTTTTTTTTTTTTTTTTTTTTT…TC). Details: aptamer strand: ATP DNA aptamer (quencher-CACCTGGGGGAGTATTGCGGAGGAAGG + anchor), 100 nM annealed; ATP concentration: 500 uM.
In short: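 Cy3-labelled switching-strand clusters on a modified Illumina MiSeq flow-cell were annealed to 100 nM quencher-labelled ATP aptamer, imaged in selection buffer, then imaged after 15 min with 500 uM ATP at 22 °C. Five buffer/ATP cycles ran, with NaOH stripping and re-annealing between them. The fluorescence ratio is summed target-cycle over summed buffer-cycle Cy3 intensity per cluster, averaged per switch-domain sequence. Clusters outside 100-1000 RFU were excluded.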
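Further: ATP exposure 15 min at 22 °C before imaging.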

| Sequence | switch fluorescence ratio |
| --- | --- |
| GTATAAGGGG | 0.977 ± 0.026 |
| GTATAAGTTT | 0.998 ± 0.017 |
| GTATAATTCA | 0.975 ± 0.028 |
| GTATGAAGTT | 0.982 ± 0.028 |
| GTATGCCGTC | 0.988 ± 0.076 |
| GTATGCCTTC | 1 ± 0.032 |
| GTATGTAGGG | 0.995 ± 0.015 |
| GTATGTAGTG | 0.966 ± 0.023 |
| GTATGTGTCG | 1.01 ± 0.017 |
| GTATTAAACC | 1.06 ± 0.023 |
| GTATTACAGG | 1.04 ± 0.04 |
| GTATTAGAAG | 0.975 ± 0.047 |
| GTATTAGGAA | 0.985 ± 0.031 |
| GTATTAGGGT | 1 ± 0.041 |
| GTATTCGGTG | 0.982 ± 0.045 |
| GTATTGGTCG | 1.058 ± 0.0091 |
| GTATTTCTTA | 0.974 ± 0.0099 |
| GTATTTGGAG | 1.0226 ± 0.00041 |
| GTATTTGGGT | 0.986 ± 0.041 |
| GTATTTTAGG | 0.999 ± 0.053 |
| GTATTTTGCG | 1.12 ± 0.26 |
| GTATTTTGGC | 1.025 ± 0.0052 |
| GTCAACGCCG | 1.02 ± 0.018 |
| GTCAATTGGA | 0.992 ± 0.013 |
| GTCACACTT | 1.01 ± 0.0073 |

| Sequence | switch fluorescence ratio |
| --- | --- |
| GTCACCAACA | 1.27 ± 0.28 |
| GTCACGGGCG | 1.006 ± 0.0091 |
| GTCACTTATT | 1.036 ± 0.0058 |
| GTCAGAGCTA | 1.01 ± 0.025 |
| GTCAGGAGGG | 0.971 ± 0.026 |
| GTCAGGGGGA | 1.07 ± 0.14 |
| GTCAGTGTCG | 0.962 ± 0.021 |
| GTCATATGTC | 1.07 ± 0.051 |
| GTCATCATGG | 0.986 ± 0.044 |
| GTCCACTGTT | 0.996 ± 0.024 |
| GTCCGAGAAT | 0.986 ± 0.064 |
| GTCCGGGGGC | 1.13 ± 0.04 |
| GTCCGGGTTT | 1.01 ± 0.036 |
| GTCCTTTTTT | 0.97 ± 0.039 |
| GTCGAATGGG | 1 ± 0.02 |
| GTCGATTTTT | 0.992 ± 0.044 |
| GTCGCAAGGG | 1.15 ± 0.021 |
| GTCGCAGGAG | 1.05 ± 0.011 |
| GTCGCATGAG | 1.03 ± 0.05 |
| GTCGGAGAGC | 1.04 ± 0.039 |
| GTCGGGAGGT | 0.989 ± 0.015 |
| GTCGGGAGTG | 0.986 ± 0.065 |
| GTCGGGGTAT | 0.991 ± 0.012 |
| GTCGGGGTCA | 0.99653 ± 0.0006 |
| GTCGGGTACA | 1.008 ± 0.0085 |

| Sequence | switch fluorescence ratio |
| --- | --- |
| GTCGGGTTTG | 0.991 ± 0.014 |
| GTCGGTGTTG | 0.98952 ± 0.00042 |
| GTCGTAAGAG | 0.98 ± 0.041 |
| GTCGTAGGAT | 0.9915 ± 0.0065 |
| GTCGTATGAG | 1.01 ± 0.028 |
| GTCGTCGGCG | 1.02 ± 0.025 |
| GTCGTCTTTT | 1.01 ± 0.012 |
| GTCGTGCCTG | 1.04 ± 0.15 |
| GTCGTGGCAA | 1.04 ± 0.022 |
| GTCGTGTCTG | 1.004 ± 0.0065 |
| GTCGTGTGGT | 0.99 ± 0.045 |
| GTCTAACTGC | 0.962 ± 0.033 |
| GTCTAAGGGA | 0.968 ± 0.024 |
| GTCTATACAT | 0.973 ± 0.028 |
| GTCTATCTCT | 1.013 ± 0.0093 |
| GTCTCAGGTT | 1.04 ± 0.014 |
| GTCTCGGCAT | 1.2 ± 0.044 |
| GTCTGAGGTT | 0.963 ± 0.015 |
| GTCTGGGCTG | 0.986 ± 0.014 |
| GTCTTGGGTA | 0.963 ± 0.024 |
| GTGAAACGGT | 1.03 ± 0.043 |
| GTGAACATAT | 1.036 ± 0.0022 |
| GTGACAGAGG | 1.02 ± 0.0015 |
| GTGACTGTGT | 0.963 ± 0.014 |
| GTGAGATTGC | 0.95675 ± 0.0008 |

| Sequence | switch fluorescence ratio |
| --- | --- |
| GTGAGCCAGT | 1.01 ± 0.022 |
| GTGAGGAGTA | 1.001 ± 0.0093 |
| GTGAGGGGCG | 0.964 ± 0.035 |
| GTGAGGGTTT | 0.9758 ± 0.005 |
| GTGAGTGGTG | 0.978 ± 0.015 |
| GTGATATAAG | 0.986 ± 0.031 |
| GTGATATGGA | 0.992 ± 0.014 |
| GTGATCGTCG | 1.01 ± 0.017 |
| GTGATGCAGG | 0.98 ± 0.026 |
| GTGATGCTGC | 1.07 ± 0.015 |
| GTGATTCAGG | 0.989 ± 0.029 |
| GTGATTCCGA | 1.02 ± 0.029 |
| GTGATTCTTG | 0.9745 ± 0.0022 |
| GTGATTGGAG | 0.966 ± 0.025 |
| GTGCATGGGA | 0.997 ± 0.055 |
| GTGCCTAGTG | 1.017 ± 0.01 |
| GTGCGCGGCC | 1.01 ± 0.051 |
| GTGCTCAGGG | 1.02 ± 0.077 |
| GTGGAAAGTA | 0.997 ± 0.011 |
| GTGGAAATCA | 1.01 ± 0.029 |
| GTGGAAATGG | 1.01 ± 0.022 |
| GTGGAACCTT | 1.24 ± 0.2 |
| GTGGAAGGCA | 0.9925 ± 0.0025 |
| GTGGAAGGGT | 1.02 ± 0.042 |
| GTGGAATTTT | 1.01 ± 0.0057 |

| Sequence | switch fluorescence ratio |
| --- | --- |
| GTGGACAAGG | 0.978 ± 0.031 |
| GTGGACATTA | 1.01 ± 0.012 |
| GTGGAGTAAG | 1.01 ± 0.023 |
| GTGGATACTA | 1.009 ± 0.0047 |
| GTGGATAGGT | 1.01 ± 0.045 |
| GTGGATATAG | 0.99333 ± 0.00046 |
| GTGGATTTGA | 1.01 ± 0.013 |
| GTGGCAACAA | 0.984 ± 0.035 |
| GTGGCCCCGG | 1.02 ± 0.043 |
| GTGGGAAAGT | 1.04 ± 0.015 |
| GTGGGAATGG | 0.9747 ± 0.0072 |
| GTGGGAGCGT | 0.97882 ± 0.00039 |
| GTGGGAGGGG | 1 ± 0.015 |
| GTGGGAGTTG | 0.969 ± 0.04 |
| GTGGGATTGG | 1.01 ± 0.027 |
| GTGGGATTTT | 0.986 ± 0.062 |
| GTGGGCAGCG | 0.9666 ± 0.0047 |
| GTGGGCCAGC | 0.964 ± 0.082 |
| GTGGGCCTTT | 0.987 ± 0.015 |
| GTGGGCTGTT | 1.01 ± 0.06 |
| GTGGGGAAAA | 0.994 ± 0.035 |
| GTGGGGCGCA | 1.01 ± 0.026 |
| GTGGGGCGTG | 1 ± 0.03 |
| GTGGGGGATT | 0.996 ± 0.03 |
| GTGGGGGGAA | 0.98 ± 0.018 |

| Sequence | switch fluorescence ratio |
| --- | --- |
| GTGGGGGGAT | 0.999 ± 0.023 |
| GTGGGGGGCA | 0.991 ± 0.033 |
| GTGGGGGGGT | 0.992 ± 0.026 |
| GTGGGGGTAG | 0.99 ± 0.032 |
| GTGGGGTAAG | 0.987 ± 0.014 |
| GTGGGGTCGG | 0.979 ± 0.0057 |
| GTGGGGTGTG | 1.01 ± 0.021 |
| GTGGGGTTGG | 0.981 ± 0.021 |
| GTGGGTATGG | 1.002 ± 0.01 |
| GTGGGTATGT | 0.983 ± 0.017 |
| GTGGGTCGTA | 0.985 ± 0.046 |
| GTGGGTTATT | 0.999 ± 0.016 |
| GTGGGTTTGC | 1.03 ± 0.03 |
| GTGGTAAACG | 1 ± 0.029 |
| GTGGTACGGA | 1.0044 ± 0.00029 |
| GTGGTATATG | 0.997 ± 0.0073 |
| GTGGTCAGGC | 0.975 ± 0.022 |
| GTGGTCAGGG | 0.9855 ± 0.0092 |
| GTGGTCGAGA | 0.986 ± 0.033 |
| GTGGTCGGTA | 0.952 ± 0.084 |
| GTGGTCTCCG | 0.982 ± 0.038 |
| GTGGTGAAGG | 0.99 ± 0.039 |
| GTGGTGAGGT | 0.966 ± 0.02 |
| GTGGTGCGGA | 0.943 ± 0.052 |
| GTGGTGGGAC | 0.972 ± 0.042 |

| Sequence | switch fluorescence ratio |
| --- | --- |
| GTGGTGGGGA | 1 ± 0.024 |
| GTGGTGGGGT | 1.01 ± 0.028 |
| GTGGTGGGTA | 0.947 ± 0.073 |
| GTGGTGTATC | 1.02 ± 0.019 |
| GTGGTGTCGT | 0.984 ± 0.016 |
| GTGGTGTGTT | 1.05 ± 0.14 |
| GTGGTGTTTT | 1 ± 0.015 |
| GTGGTTGGGG | 1.01 ± 0.028 |
| GTGGTTGGTA | 1.02 ± 0.03 |
| GTGGTTTCTG | 0.984 ± 0.1 |
| GTGGTTTTTT | 0.996 ± 0.022 |
| GTGTAAAGAC | 1.03 ± 0.053 |
| GTGTAAAGTG | 0.949 ± 0.047 |
| GTGTAAAGTT | 0.972 ± 0.021 |
| GTGTAAGATG | 1.0023 ± 0.0005 |
| GTGTAATGAG | 0.964 ± 0.014 |
| GTGTACGGGG | 0.971 ± 0.026 |
| GTGTACGGGT | 0.991 ± 0.012 |
| GTGTAGGGGA | 1.0019 ± 0.00055 |
| GTGTATAGCA | 1.03 ± 0.014 |
| GTGTATATCG | 0.991 ± 0.012 |
| GTGTATCGTC | 0.9819 ± 0.0014 |
| GTGTATGAGA | 1.002 ± 0.0083 |
| GTGTCAATTT | 1.13 ± 0.17 |
| GTGTCATAGC | 0.975 ± 0.012 |

| Sequence | switch fluorescence ratio |
| --- | --- |
| GTGTCATTTA | 0.99 ± 0.035 |
| GTGTCCATTG | 0.998 ± 0.074 |
| GTGTCGGGGA | 1.01 ± 0.071 |
| GTGTCGGGGT | 1.002 ± 0.004 |
| GTGTCTAAAT | 0.989 ± 0.011 |
| GTGTCTACAT | 1.02 ± 0.014 |
| GTGTCTTGGA | 0.9893 ± 0.0052 |
| GTGTGAAAGC | 1.011 ± 0.0035 |
| GTGTGACACG | 1.04 ± 0.064 |
| GTGTGACCGT | 1.02 ± 0.024 |
| GTGTGCTAGT | 0.975 ± 0.02 |
| GTGTGGTGTT | 0.986 ± 0.016 |
| GTGTGTCAGT | 0.964 ± 0.013 |
| GTGTGTGGGA | 1 ± 0.026 |
| GTGTGTGGGC | 1.04 ± 0.061 |
| GTGTGTGGTC | 1 ± 0.021 |
| GTGTGTTGTC | 1.01 ± 0.02 |
| GTGTTAAAGG | 0.992 ± 0.013 |
| GTGTTAATGA | 0.967 ± 0.019 |
| GTGTTAATGG | 0.998 ± 0.022 |
| GTGTTAGATC | 0.98 ± 0.017 |
| GTGTTAGGCG | 0.981 ± 0.018 |
| GTGTTATAGG | 1 ± 0.026 |
| GTGTTATATT | 1.004 ± 0.0089 |
| GTGTTCAGGG | 1.02 ± 0.021 |
